Source: paper PMC8754649, “Structural basis of dimerization and nucleic acid binding of human DBHS proteins NONO and PSPC1” (Nucleic Acids Research, 2021)

What was measured:
[1] = target: the molecule itself; assay: crystal structure; PSPC1 aa61–320 homodimer; one dimer in the asymmetric unit; 3.17 Å; hanging drop, 100 mM malic acid pH 7.0, 28% PEG 3350, 100 mM Tris pH 7.0
[2] = target: the molecule itself; assay: crystal structure; NONO aa53–312 homodimer; six dimers (12 monomers) in the asymmetric unit; 2.60 Å; crystallization and phasing described in ref. 38

Protein | binding result [1] | binding result [2]
PSPC1-DBHS (paraspeckle protein component 1, aa61–320) (domain or fragment, human, UniProt Q8WXF1 61-320, looked up, human PSPC1, conserved DBHS region, aa61–320 relative to UniProt entry PSPC1_HUMAN; also called PSPC1 homodimer; PSPC1 (aa61–320); source: E. coli Rosetta2 (DE3), purified (Ni Hi-Trap, TEV digestion, reverse Hi-Trap, Superdex 200)) MGFTIDIKSFLKPGEKTYTQRCRLFVGNLPTDITEEDFKRLFERYGEPSEVFINRDRGFGFIRLESRTLAEIAKAELDGTILKSRPLRIRFATHGAALTVKNLSPVVSNELLEQAFSQFGPVEKAVVVVDDRGRATGKGFVEFAAKPPARKALERCGDGAFLLTTTPRPVIVEPMEQFDDEDGLPEKLMQKTQQYHKEREQPPRFAQPGTFEFEYASRWKALDEMEKQQREQVDRNIREAKEKLEAEMEAARHEHQLMLM | binds | –
NONO-DBHS (non-POU domain-containing octamer-binding protein, aa53–312) (domain or fragment, human, UniProt Q15233 53-312, looked up, Cloned into the first expression cassette of pET-Duet1; also called NONO homodimer; P54nrb; not shown: His6, N-terminal, cleaved) EGLTIDLKNFRKPGEKTFTQRSRLFVGNLPPDITEEEMRKLFEKYGKAGEVFIHKDKGFGFIRLETRTLAEIAKVELDNMPLRGKQLRVRFACHSASLTVRNLPQYVSNELLEEAFSVFGQVERAVVIVDDRGRPSGKGIVEFSGKPAARKALDRCSEGSFLLTTFPRPVTVEPMDQLDDEEGLPEKLVIKNQQFHKEREQPPRFAQPGSFEYEYAMRWKALIEMEKQQQDQVDRNIKEAREKLEMEMEAARHEHQVMLM | – | binds
